Test results reported in publication PMC7022630 (Biomolecules, 2020).

Biological target: the molecule itself
Test: SEC-MALS; Superdex 200 10/300 GL; 20 mM Tris-HCl pH 7.5, 150 mM sodium chloride, 0.5 mM TCEP; 100 μL of monomer and dimer fractions of NDRG3 ΔNC at 2.0 mg/mL injected separately, 0.4 mL/min

B1: truncated human NDRG3 (residues 29–320, NDRG3 ΔNC) (domain or fragment)
chain: not shown
notes: N-Myc downstream-regulated gene 3 protein (NDRG3), human, 375 amino acids, residues 29-320; Elutes as monomer and dimer fractions; mainly monomer; No removal of the His tag is described; also called NDRG3 ΔNC WT; NDRG3 ΔNC wild type; source: E. coli BLR(DE3), purified (Ni-chelating, Q HP, Superdex 200); for the analytical SEC loaded after the Ni-chelating column
  stoichiometry N: 2
